# Measured values as given in patent publication US20180110770A1, “FERROPTOSIS AND GLUTAMINOLYSIS INHIBITORS AND METHODS OF TREATMENT” (MEMORIAL SLOAN-KETTERING CANCER CENTER, priority 2015, published 2018).
# B1: bovine holo-transferrin: commercial iron-bound bovine holo-transferrin (Sigma) (protein, UniProt Q29443 20-704, looked up)
# Serotransferrin: DPERTVRWCTISTHEANKCASFRENVLRILESGPFVSCVKKTSHMDCIKAISNNEADAVTLDGGLVYEAGLKPNNLKPVVAEFHGTKDNPQTHYYAVAVVKKDTDFKLNELRGKKSCHTGLGRSAGWNIPMAKLYKELPDPQESIQRAAANFFSASCVPCADQSSFPKLCQLCAGKGTDKCACSNHEPYFGYSGAFKCLMEGAGDVAFVKHSTVFDNLPNPEDRKNYELLCGDNTRKSVDDYQECYLAMVPSHAVVARTVGGKEDVIWELLNHAQEHFGKDKPDNFQLFQSPHGKDLLFKDSADGFLKIPSKMDFELYLGYEYVTALQNLRESKPPDSSKDECMVKWCAIGHQERTKCDRWSGFSGGAIECETAENTEECIAKIMKGEADAMSLDGGYLYIAGKCGLVPVLAENYKTEGESCKNTPEKGYLAVAVVKTSDANINWNNLKDKKSCHTAVDRTAGWNIPMGLLYSKINNCKFDEFFSAGCAPGSPRNSSLCALCIGSEKGTGKECVPNSNERYYGYTGAFRCLVEKGDVAFVKDQTVIQNTDGNNNEAWAKNLKKENFEVLCKDGTRKPVTDAENCHLARGPNHAVVSRKDKATCVEKILNKQQDDFGKSVTDCTSNFCLFQSNSKDLLFRDDTKCLASIAKKTYDSYLGDDYVRAMTNLRQCSTSKLLEACTFHKP
# modifications: iron-bound
# B2: bovine apo-transferrin: iron-free bovine apo-transferrin (protein, UniProt Q29443 20-704, looked up)
# Serotransferrin: DPERTVRWCTISTHEANKCASFRENVLRILESGPFVSCVKKTSHMDCIKAISNNEADAVTLDGGLVYEAGLKPNNLKPVVAEFHGTKDNPQTHYYAVAVVKKDTDFKLNELRGKKSCHTGLGRSAGWNIPMAKLYKELPDPQESIQRAAANFFSASCVPCADQSSFPKLCQLCAGKGTDKCACSNHEPYFGYSGAFKCLMEGAGDVAFVKHSTVFDNLPNPEDRKNYELLCGDNTRKSVDDYQECYLAMVPSHAVVARTVGGKEDVIWELLNHAQEHFGKDKPDNFQLFQSPHGKDLLFKDSADGFLKIPSKMDFELYLGYEYVTALQNLRESKPPDSSKDECMVKWCAIGHQERTKCDRWSGFSGGAIECETAENTEECIAKIMKGEADAMSLDGGYLYIAGKCGLVPVLAENYKTEGESCKNTPEKGYLAVAVVKTSDANINWNNLKDKKSCHTAVDRTAGWNIPMGLLYSKINNCKFDEFFSAGCAPGSPRNSSLCALCIGSEKGTGKECVPNSNERYYGYTGAFRCLVEKGDVAFVKDQTVIQNTDGNNNEAWAKNLKKENFEVLCKDGTRKPVTDAENCHLARGPNHAVVSRKDKATCVEKILNKQQDDFGKSVTDCTSNFCLFQSNSKDLLFRDDTKCLASIAKKTYDSYLGDDYVRAMTNLRQCSTSKLLEACTFHKP
# modifications: iron-free
# Tested on: bax/bak-DKO MEFs
# Assay: Death-inducing activity of transferrin and L-Gln under amino acid starvation
# Type: cell-based, mouse
# Details: with smFBS, 12 hrs
# Protocol: To induce cell death, 80%-confluent cells were washed with PBS twice, and then cultured in amino acid-free medium, with specific factors added as indicated in individual experiments. Cell death was analyzed by propidium iodide (PI) staining coupled with microscopy or flow cytometry. Alternatively, cell viability was determined using the CellTiter-Glo luminescent Cell Viability Assay (Promega). In assays using WT MEFs, viability was calculated by normalizing ATP levels to cells treated with amino acid-starvation in the presence of 10% (v/v) diFBS, while in assays using bax/bak-DKO MEFs, ATP levels were normalized to cells treated with amino acid and FBS double starvation.
row,Molecule,induction of cell death in the presence of smFBS
1,B1,induced robust cell death
2,B2,does not possess killing activity
